The values below come from paper PMC2570039 (Molecular cell, 2008).

In data set [1] the target is FtsK50C (50 amino acids from FtsKN fused to FtsKC) (E. coli). Description: SEC. For orientation: SEC sorts molecules by how far they enter the pores of the column.
The target is the same in data set [2]. Description: […].
The data set “crystal structure” deals with the molecule itself. In words: crystal structure.

For “FtsK50C (50 amino acids from FtsKN fused to FtsKC) (domain or fragment)”, the stoichiometry N in data set [1] and in data set [2] was 6 each time.

B1: Seleno-methionine-substituted Pseudomonas aeruginosa FtsK γ-domain (GGS-742-811) (domain or fragment)
chain: GGSEGSEDDPLYDEAVRFVTESRRASISAVQRKLKIGYNRAARMIEAMEMAGVVTPMNTNGSREVIAPAPVRD
modifications: seleno-methionine-substituted
As to B1, the binding result in “crystal structure” is recorded as “binds”.

Broadly, the stoichiometry N is a count of units in the complex or per binding partner.
